Source: FireProtDB (doi:10.1016/s0301-4622(99)00140-4)

Details: Bos taurus, pH 8, Thermal, DSC, Tris 10 mM, whole UniProt chain shown

B1: Alpha-lactalbumin wild type, P00711 (protein)
chain: MMSFVSLLLVGILFHATQAEQLTKCEVFRELKDLKGYGGVSLPEWVCTTFHTSGYDTQAIVQNNDSTEYGLFQINNKIWCKDDQNPHSSNICNISCDKFLDDDLTDDIMCVKKILDKVGINYWLAHKALCSEKLDQWLCEKL
CaCl2 0.0 mM
  Tm: 64.1 °C
  unfolding enthalpy (calorimetric): 64.8 kcal/mol
CaCl2 0.1 mM
  Tm: 65.2 °C
  unfolding enthalpy (calorimetric): 71.1 kcal/mol
CaCl2 1.0 mM
  Tm: 67.9 °C
  unfolding enthalpy (calorimetric): 75.6 kcal/mol
CaCl2 2.0 mM
  Tm: 68.9 °C
  unfolding enthalpy (calorimetric): 76 kcal/mol
CaCl2 10.0 mM
  Tm: 70 °C
  unfolding enthalpy (calorimetric): 75 kcal/mol
